Laboratory results published in publication PMC4650548.

Target: NBS1 (UniProt O60934)
Assay: biotin-peptide streptavidin pull-down from lysate

- binding against the reference (reference: SDpTE peptide, sites S915): gained
- binding against the reference (reference: pSDTE peptide, sites T917): gained
Substance: PHRF1 908-924 (from UniProt Q9P1Y6) pSDpTE peptide
